According to patent publication US20190233493A1 (Sanofi, published 2019):
Each block holds one binder with its values, some of them ahead of it. *1 amine or outer side, *2 acyl side, *3 side chain or, on linkers, in order; H or OH if unused. Primed or numbered codes have the meaning given here. Side-chain parts run from the residue outwards. [ ]: non-standard residue; d: D form. The star is where a group is joined. γGlu = O=C(O)[C@H](CCC(=O)[*:2])N[*:1]; Stearoyl = CCCCCCCCCCCCCCCCCC(=O)*; Palmitoyl = CCCCCCCCCCCCCCCC(=O)*; Nle = CCCC[C@H](N)C(=O)O; PEG2′ = PEG2 spacer unit; PEG2″ = not defined here; Aib = CC(C)(N)C(=O)O

Target: T1, RXFP1 receptor (UniProt Q9HBX9 1-757, limits assumed)
T1 sequence (looked up): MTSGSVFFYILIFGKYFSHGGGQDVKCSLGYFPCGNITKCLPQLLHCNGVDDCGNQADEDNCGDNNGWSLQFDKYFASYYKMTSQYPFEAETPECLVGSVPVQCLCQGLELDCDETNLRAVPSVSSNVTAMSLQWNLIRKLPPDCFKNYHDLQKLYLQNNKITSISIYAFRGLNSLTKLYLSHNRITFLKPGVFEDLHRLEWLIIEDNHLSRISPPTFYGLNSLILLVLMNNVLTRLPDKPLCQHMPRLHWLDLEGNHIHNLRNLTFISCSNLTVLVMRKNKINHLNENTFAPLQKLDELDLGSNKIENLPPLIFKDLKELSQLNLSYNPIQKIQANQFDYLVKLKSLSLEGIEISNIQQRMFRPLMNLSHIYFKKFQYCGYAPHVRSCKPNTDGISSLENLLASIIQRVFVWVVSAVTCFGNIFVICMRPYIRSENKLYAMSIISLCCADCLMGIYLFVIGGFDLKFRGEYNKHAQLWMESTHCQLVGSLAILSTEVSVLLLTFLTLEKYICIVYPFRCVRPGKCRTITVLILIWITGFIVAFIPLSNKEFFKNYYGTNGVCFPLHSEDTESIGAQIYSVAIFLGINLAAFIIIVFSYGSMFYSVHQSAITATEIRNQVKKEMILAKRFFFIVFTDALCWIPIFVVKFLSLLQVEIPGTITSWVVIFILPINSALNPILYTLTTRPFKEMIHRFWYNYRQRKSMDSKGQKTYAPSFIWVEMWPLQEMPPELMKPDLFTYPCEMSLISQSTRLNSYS
Assay: cell-based or functional assay

Binder: Ac-LEGREKVRAQI[Aib][Aib]EG[Nle]STWS[Aib]RKK([PEG2′-Palmitoyl])-NH2 [peptide of SEQ ID NO: 50]
- EC50 (nM), OVCAR 5 cells (cAMP): 75.9 nM
- EMax, OVCAR 5 cells (cAMP): 95%

Binder: Ac-LEGREKVRAQI[Aib][Aib]EG[Nle]STWS[Aib]RKKK([PEG2′-PEG2′-γGlu-Stearoyl])-NH2 [peptide of SEQ ID NO: 56]
- EC50 (nM), OVCAR 5 cells (cAMP): 0.51 nM
- EMax, OVCAR 5 cells (cAMP): 95%

B1: peptide of SEQ ID NO: 5 (peptide)
peptide: Ac-LEGREKVRAQI[Aib][Aib]EGMSTWS[Aib]RK([γGlu-γGlu-Palmitoyl])-NH2
SMILES: CCCCCCCCCCCCCCCC(=O)N[C@@H](CCC(=O)N[C@@H](CCC(=O)NCCCC[C@H](NC(=O)[C@H](CCCNC(=N)N)NC(=O)C(C)(C)NC(=O)[C@H](CO)NC(=O)[C@H](Cc1c[nH]c2ccccc12)NC(=O)[C@@H](NC(=O)[C@H](CO)NC(=O)[C@H](CCSC)NC(=O)CNC(=O)[C@H](CCC(=O)O)NC(=O)C(C)(C)NC(=O)C(C)(C)NC(=O)[C@@H](NC(=O)[C@H](CCC(N)=O)NC(=O)[C@H](C)NC(=O)[C@H](CCCNC(=N)N)NC(=O)[C@@H](NC(=O)[C@H](CCCCN)NC(=O)[C@H](CCC(=O)O)NC(=O)[C@H](CCCNC(=N)N)NC(=O)CNC(=O)[C@H](CCC(=O)O)NC(=O)[C@H](CC(C)C)NC(C)=O)C(C)C)[C@@H](C)CC)[C@@H](C)O)C(N)=O)C(=O)O)C(=O)O
- EC50 (nM), OVCAR 5 cells (cAMP): 86.8 nM
- EMax, OVCAR 5 cells (cAMP): 105%

Binder: Ac-ELEGREKVRAAI[Aib][Aib]EG[Nle]STWS[Aib]RKK([PEG2′-γGlu-γGlu-Palmitoyl])-NH2 [peptide of SEQ ID NO: 54]
- EC50 (nM), OVCAR 5 cells (cAMP): 18.6 nM
- EMax, OVCAR 5 cells (cAMP): 98%

Binder: Ac-LEGREKVRAQI[Aib][Aib]EG[Nle]STWS[Aib]RKK([PEG2′-γGlu-Palmitoyl])-NH2 [peptide of SEQ ID NO: 53]
- EC50 (nM), OVCAR 5 cells (cAMP): 15.3 nM
- EMax, OVCAR 5 cells (cAMP): 97%

Binder: Ac-ELEGREKVRAAI[Aib][Aib]EG[Nle]STWS[Aib]RKK([PEG2′-PEG2′-γGlu-γGlu-Palmitoyl])-NH2 [peptide of SEQ ID NO: 57]
- EC50 (nM), OVCAR 5 cells (cAMP): 4.4 nM
- EMax, OVCAR 5 cells (cAMP): 93%

Binder: Ac-LEGREKVRAQI[Aib][Aib]EG[Nle]STWS[Aib]RKK([PEG2′-γGlu-γGlu-γGlu-Palmitoyl])-NH2 [peptide of SEQ ID NO: 55]
- EC50 (nM), OVCAR 5 cells (cAMP): 19.3 nM
- EMax, OVCAR 5 cells (cAMP): 94%

B2: peptide of SEQ ID NO: 6 (peptide)
peptide: Ac-ELEGREKVRAAI[Aib][Aib]EG[Nle]STWS[Aib]RKKK([γGlu-γGlu-γGlu-Palmitoyl])-NH2
SMILES: CCCCCCCCCCCCCCCC(=O)N[C@@H](CCC(=O)N[C@@H](CCC(=O)N[C@@H](CCC(=O)NCCCC[C@H](NC(=O)[C@H](CCCCN)NC(=O)[C@H](CCCCN)NC(=O)[C@H](CCCNC(=N)N)NC(=O)C(C)(C)NC(=O)[C@H](CO)NC(=O)[C@H](Cc1c[nH]c2ccccc12)NC(=O)[C@@H](NC(=O)[C@H](CO)NC(=O)[C@H](CCCC)NC(=O)CNC(=O)[C@H](CCC(=O)O)NC(=O)C(C)(C)NC(=O)C(C)(C)NC(=O)[C@@H](NC(=O)[C@H](C)NC(=O)[C@H](C)NC(=O)[C@H](CCCNC(=N)N)NC(=O)[C@@H](NC(=O)[C@H](CCCCN)NC(=O)[C@H](CCC(=O)O)NC(=O)[C@H](CCCNC(=N)N)NC(=O)CNC(=O)[C@H](CCC(=O)O)NC(=O)[C@H](CC(C)C)NC(=O)[C@H](CCC(=O)O)NC(C)=O)C(C)C)[C@@H](C)CC)[C@@H](C)O)C(N)=O)C(=O)O)C(=O)O)C(=O)O
- EC50 (nM), OVCAR 5 cells (cAMP): 18 nM
- EMax, OVCAR 5 cells (cAMP): 100%

Binder: Ac-LEGREKVRAQI[Aib][Aib]EG[Nle]STWS[Aib]RKK([PEG2′-PEG2′-γGlu-γGlu-γGlu-Palmitoyl])-NH2 [peptide of SEQ ID NO: 58]
- EC50 (nM), OVCAR 5 cells (cAMP): 14.8 nM
- EMax, OVCAR 5 cells (cAMP): 83%

B3: peptide of SEQ ID NO: 1 (peptide)
peptide: Ac-LEGREKVRAAI[Aib][Aib]EG[Nle]STWS[Aib]RKK(Palmitoyl)-NH2
SMILES: CCCCCCCCCCCCCCCC(=O)NCCCC[C@H](NC(=O)[C@H](CCCCN)NC(=O)[C@H](CCCNC(=N)N)NC(=O)C(C)(C)NC(=O)[C@H](CO)NC(=O)[C@H](Cc1c[nH]c2ccccc12)NC(=O)[C@@H](NC(=O)[C@H](CO)NC(=O)[C@H](CCCC)NC(=O)CNC(=O)[C@H](CCC(=O)O)NC(=O)C(C)(C)NC(=O)C(C)(C)NC(=O)[C@@H](NC(=O)[C@H](C)NC(=O)[C@H](C)NC(=O)[C@H](CCCNC(=N)N)NC(=O)[C@@H](NC(=O)[C@H](CCCCN)NC(=O)[C@H](CCC(=O)O)NC(=O)[C@H](CCCNC(=N)N)NC(=O)CNC(=O)[C@H](CCC(=O)O)NC(=O)[C@H](CC(C)C)NC(C)=O)C(C)C)[C@@H](C)CC)[C@@H](C)O)C(N)=O
- EC50 (nM), OVCAR 5 cells (cAMP): 85.3 nM
- EMax, OVCAR 5 cells (cAMP): 85%

Binder: Ac-LEGREKVRAQI[Aib][Aib]EG[Nle]STWS[Aib]RKK(Ac)K([PEG2′-PEG2′-PEG2′-Stearoyl])-NH2 [peptide of SEQ ID NO: 52]
- EC50 (nM), OVCAR 5 cells (cAMP): 56 nM
- EMax, OVCAR 5 cells (cAMP): 98%

Binder: Ac-LEGREKVRAQI[Aib][Aib]EG[Nle]STWS[Aib]RKK(Ac)K([PEG2′-PEG2′-Stearoyl])-NH2 [peptide of SEQ ID NO: 51]
- EC50 (nM), OVCAR 5 cells (cAMP): 71.2 nM
- EMax, OVCAR 5 cells (cAMP): 100%

Second part, the binder after the results:

- EC50 (nM), OVCAR 5 cells (cAMP): 0.2 nM
- EMax, OVCAR 5 cells (cAMP): 81%
Binder: Ac-LEGREKVRAK(Ac)I[Aib][Aib]EG[Nle]STWS[Aib]RKK(Ac)K([PEG2″-PEG2″-PEG2″-PEG2″-γGlu-γGlu-γGlu-Palmitoyl])-NH2 [peptide of SEQ ID NO: 64]

- EC50 (nM), OVCAR 5 cells (cAMP): 28.2 nM
- EMax, OVCAR 5 cells (cAMP): 85%
Binder: Ac-LEGREKVRAK(Ac)I[Aib][Aib]EG[Nle]STWS[Aib]RKK([PEG2′-PEG2′-γGlu-γGlu-γGlu-Palmitoyl])-NH2 [peptide of SEQ ID NO: 59]

- EC50 (nM), OVCAR 5 cells (cAMP): 0.11 nM
- EMax, OVCAR 5 cells (cAMP): 91%
Binder: Ac-LEGREKVRAK(Ac)I[Aib][Aib]EG[Nle]STWS[Aib]RKKK([PEG2′-PEG2′-γGlu-γGlu-γGlu-Palmitoyl])-NH2 [peptide of SEQ ID NO: 60]

- EC50 (nM), OVCAR 5 cells (cAMP): 1.14 nM
- EMax, OVCAR 5 cells (cAMP): 87%
Binder: Ac-LEGREKVRAK(Ac)I[Aib][Aib]EG[Nle]STWS[Aib]RKK(Ac)K([PEG2′-PEG2′-γGlu-γGlu-γGlu-Palmitoyl])-NH2 [peptide of SEQ ID NO: 62]

- EC50 (nM), OVCAR 5 cells (cAMP): 0.17 nM
- EMax, OVCAR 5 cells (cAMP): 93%
Binder: Ac-LEGREKVRAK(Ac)I[Aib][Aib]EGK(Ac)STWS[Aib]RKKK([PEG2′-PEG2′-γGlu-γGlu-γGlu-Palmitoyl])-NH2 [peptide of SEQ ID NO: 61]

- EC50 (nM), OVCAR 5 cells (cAMP): 0.84 nM
- EMax, OVCAR 5 cells (cAMP): 80%
Binder: Ac-LEGREKVRAK(Ac)I[Aib][Aib]EG[Nle]STWS[Aib]RKK(Ac)K([PEG2′-PEG2′-PEG2′-γGlu-γGlu-γGlu-Palmitoyl])-NH2 [peptide of SEQ ID NO: 63]
